Assay results published in the supplement of paper PMC10065799, “High-throughput profiling of sequence recognition by tyrosine kinases and SH2 domains using bacterial peptide display” (eLife, 2023).

Target: MERTK (UniProt Q12866)
Experiment: phosphorylation enrichment, bacterial display (enrichment ratio); higher = better substrate or ligand; peptides without Tyr show the background
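Further: 11-residue human phosphosite peptides and single-mutation variants displayed on the E. coli surface, counted by deep sequencing, each peptide's frequency after selection divided by its frequency in the unselected input library; frequency after pTyr selection over input frequency; kinase dosed for 20-30% of maximal phosphorylation in three min.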

MERTK, sequence (Q12866 whole entry, looked up): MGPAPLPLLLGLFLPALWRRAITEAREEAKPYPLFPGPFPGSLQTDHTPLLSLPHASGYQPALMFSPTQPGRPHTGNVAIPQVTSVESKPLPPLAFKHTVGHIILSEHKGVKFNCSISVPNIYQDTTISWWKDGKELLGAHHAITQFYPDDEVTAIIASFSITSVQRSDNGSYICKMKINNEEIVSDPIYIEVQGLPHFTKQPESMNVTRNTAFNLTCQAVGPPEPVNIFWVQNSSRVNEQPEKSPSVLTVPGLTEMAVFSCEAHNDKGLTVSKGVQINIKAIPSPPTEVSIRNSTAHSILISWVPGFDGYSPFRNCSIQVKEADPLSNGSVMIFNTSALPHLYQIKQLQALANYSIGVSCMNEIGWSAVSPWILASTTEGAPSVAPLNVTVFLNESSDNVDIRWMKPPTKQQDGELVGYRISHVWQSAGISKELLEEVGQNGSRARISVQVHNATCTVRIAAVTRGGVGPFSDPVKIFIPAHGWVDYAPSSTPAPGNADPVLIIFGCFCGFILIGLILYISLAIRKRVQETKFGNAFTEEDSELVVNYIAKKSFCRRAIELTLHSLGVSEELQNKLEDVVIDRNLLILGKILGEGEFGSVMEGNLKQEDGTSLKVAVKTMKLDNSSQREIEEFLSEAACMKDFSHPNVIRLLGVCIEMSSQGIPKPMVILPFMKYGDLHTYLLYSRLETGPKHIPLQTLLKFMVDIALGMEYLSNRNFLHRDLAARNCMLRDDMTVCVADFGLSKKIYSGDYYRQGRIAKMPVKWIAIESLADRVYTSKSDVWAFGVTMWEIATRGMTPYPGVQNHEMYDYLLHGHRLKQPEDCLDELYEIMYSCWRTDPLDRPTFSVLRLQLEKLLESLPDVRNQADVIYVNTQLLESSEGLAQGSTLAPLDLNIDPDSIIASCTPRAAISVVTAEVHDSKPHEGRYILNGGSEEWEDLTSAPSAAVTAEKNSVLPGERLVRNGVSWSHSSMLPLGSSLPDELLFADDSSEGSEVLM

Q: With DLQDEYDFKCK [STAT1_Y170] as the sequence, how does the phosphorylation enrichment read?
A: The phosphorylation enrichment was 0.538.

Q: RLLVVYRWTQR [HBB_Y36_P37R] was tested. Which phosphorylation enrichment did it give?
A: The phosphorylation enrichment was 0.463.

Q: LPKEQYLFTKE [AFG3L2_Y614_YF] was tested. Which phosphorylation enrichment did it give?
A: The phosphorylation enrichment was 0.499.

Q: QISSNYDDAMQ [ZNF281_Y531] was tested. Which phosphorylation enrichment did it give?
A: The phosphorylation enrichment was 0.845.

Q: CSGNCYLDIRP [FBN1_Y1535_R1530C] was tested. Which phosphorylation enrichment did it give?
A: The phosphorylation enrichment was 0.49.

Q: GSERDYTYEEL [EIF2S2_Y174] was tested. Which phosphorylation enrichment did it give?
A: Its phosphorylation enrichment is 0.707.

Q: For LGRTRYQDVTG [MIPEP_Y510_H512D], which phosphorylation enrichment is on record?
A: Its phosphorylation enrichment is 0.722.

Q: How did the phosphorylation enrichment turn out when LLLLFYVVRFC [MPZ_Y177_YF] was run?
A: Its phosphorylation enrichment is 0.805.

Q: VYSIDYYRVGG [NTRK2_Y706_T704I] was tested. Which phosphorylation enrichment did it give?
A: The phosphorylation enrichment was 9.3.

Q: Which phosphorylation enrichment does the source give for VQVAYYTMMMN [SPATA17_Y84] here?
A: The phosphorylation enrichment was 6.47.

Q: With CTTIHYNYICN [TP53_Y234_M237I] as the sequence, how does the phosphorylation enrichment read?
A: Its phosphorylation enrichment is 0.518.

Q: TFSPPYYHRNC [HGD_Y333_R330S] was tested. Which phosphorylation enrichment did it give?
A: Its phosphorylation enrichment is 0.526.

Q: With GPQGFYSNKLV [PTPN14_Y506_V505F] as the sequence, how does the phosphorylation enrichment read?
A: The phosphorylation enrichment was 0.641.

Q: Which phosphorylation enrichment does the source give for SRPHLYGTPSR [ADGRE2_Y670] here?
A: The phosphorylation enrichment was 0.58.

Q: For GDEVEYMSVSF [GCLC_Y53_L55S], which phosphorylation enrichment is on record?
A: The phosphorylation enrichment was 0.418.

Q: With PYGQWYESHYA [RPS8_Y113_R110G] as the sequence, how does the phosphorylation enrichment read?
A: The phosphorylation enrichment was 9.28.

Q: How did the phosphorylation enrichment turn out when QEIATYRRLPE [KRT16_Y417_L421P] was run?
A: Its phosphorylation enrichment is 0.489.

Q: SYSGEYGSGGG [ZG16_Y30_G32S] was tested. Which phosphorylation enrichment did it give?
A: Its phosphorylation enrichment is 0.53.

Q: KAVLHYKHQNQ [MTOR_Y1804_E1799K] was tested. Which phosphorylation enrichment did it give?
A: Its phosphorylation enrichment is 0.366.

Q: For QVKEQYQDVPM [PKP2_Y659_K654Q], which phosphorylation enrichment is on record?
A: Its phosphorylation enrichment is 0.565.

Q: Which phosphorylation enrichment does the source give for NTCNRYCCDEI [ITGB3_Y660_R662C] here?
A: The phosphorylation enrichment was 0.538.

Q: For FSQQTYYPVSN [ABCD1_Y180_R182P], which phosphorylation enrichment is on record?
A: The phosphorylation enrichment was 7.46.

Q: How did the phosphorylation enrichment turn out when HAVYIYDICHV [TWNK_Y508_V507I] was run?
A: The phosphorylation enrichment was 6.7.

Q: Which phosphorylation enrichment does the source give for SDGGCYEQLFV [MC4R_Y41] here?
A: The phosphorylation enrichment was 0.806.

Q: DLTQDYEEWKR [ORC6_Y232] was tested. Which phosphorylation enrichment did it give?
A: The phosphorylation enrichment was 0.526.

Q: TEAEPYYRSLR [NPHS1_Y1138] was tested. Which phosphorylation enrichment did it give?
A: Its phosphorylation enrichment is 0.371.

Q: DNEFAYLKAII [HNF4A_Y288_YF] was tested. Which phosphorylation enrichment did it give?
A: The phosphorylation enrichment was 0.334.

Q: With WYQTKYEELQV [KRT6B_Y360_I365V] as the sequence, how does the phosphorylation enrichment read?
A: Its phosphorylation enrichment is 0.394.

Q: How did the phosphorylation enrichment turn out when AKKKMYSRKTK [AGXT_Y231] was run?
A: Its phosphorylation enrichment is 0.457.

Test system: c-Abl (mouse)
Experiment: as above

Q: How did the phosphorylation enrichment turn out when DLQDEYDFKCK [STAT1_Y170] was run?
A: The phosphorylation enrichment was 0.877.

Q: How did the phosphorylation enrichment turn out when RLLVVYRWTQR [HBB_Y36_P37R] was run?
A: Its phosphorylation enrichment is 0.601.

Q: For LPKEQYLFTKE [AFG3L2_Y614_YF], which phosphorylation enrichment is on record?
A: Its phosphorylation enrichment is 0.551.

Q: Which phosphorylation enrichment does the source give for QISSNYDDAMQ [ZNF281_Y531] here?
A: The phosphorylation enrichment was 0.569.

Q: For CSGNCYLDIRP [FBN1_Y1535_R1530C], which phosphorylation enrichment is on record?
A: The phosphorylation enrichment was 0.509.

Q: How did the phosphorylation enrichment turn out when GSERDYTYEEL [EIF2S2_Y174] was run?
A: Its phosphorylation enrichment is 0.977.

Q: How did the phosphorylation enrichment turn out when LGRTRYQDVTG [MIPEP_Y510_H512D] was run?
A: Its phosphorylation enrichment is 0.799.

Q: Which phosphorylation enrichment does the source give for LLLLFYVVRFC [MPZ_Y177_YF] here?
A: Its phosphorylation enrichment is 0.863.

Q: Which phosphorylation enrichment does the source give for VYSIDYYRVGG [NTRK2_Y706_T704I] here?
A: Its phosphorylation enrichment is 0.788.

Q: Which phosphorylation enrichment does the source give for VQVAYYTMMMN [SPATA17_Y84] here?
A: The phosphorylation enrichment was 1.15.

Q: For CTTIHYNYICN [TP53_Y234_M237I], which phosphorylation enrichment is on record?
A: The phosphorylation enrichment was 0.519.

Q: TFSPPYYHRNC [HGD_Y333_R330S] was tested. Which phosphorylation enrichment did it give?
A: Its phosphorylation enrichment is 0.612.

Q: Which phosphorylation enrichment does the source give for GPQGFYSNKLV [PTPN14_Y506_V505F] here?
A: Its phosphorylation enrichment is 0.586.

Q: How did the phosphorylation enrichment turn out when SRPHLYGTPSR [ADGRE2_Y670] was run?
A: Its phosphorylation enrichment is 0.538.

Q: With GDEVEYMSVSF [GCLC_Y53_L55S] as the sequence, how does the phosphorylation enrichment read?
A: The phosphorylation enrichment was 0.846.

Q: Which phosphorylation enrichment does the source give for PYGQWYESHYA [RPS8_Y113_R110G] here?
A: Its phosphorylation enrichment is 1.06.

Q: QEIATYRRLPE [KRT16_Y417_L421P] was tested. Which phosphorylation enrichment did it give?
A: The phosphorylation enrichment was 0.683.

Q: With SYSGEYGSGGG [ZG16_Y30_G32S] as the sequence, how does the phosphorylation enrichment read?
A: The phosphorylation enrichment was 0.596.

Q: KAVLHYKHQNQ [MTOR_Y1804_E1799K] was tested. Which phosphorylation enrichment did it give?
A: The phosphorylation enrichment was 0.891.

Q: How did the phosphorylation enrichment turn out when QVKEQYQDVPM [PKP2_Y659_K654Q] was run?
A: The phosphorylation enrichment was 2.19.

Q: How did the phosphorylation enrichment turn out when NTCNRYCCDEI [ITGB3_Y660_R662C] was run?
A: Its phosphorylation enrichment is 1.03.

Q: Which phosphorylation enrichment does the source give for FSQQTYYPVSN [ABCD1_Y180_R182P] here?
A: The phosphorylation enrichment was 0.697.

Q: For HAVYIYDICHV [TWNK_Y508_V507I], which phosphorylation enrichment is on record?
A: Its phosphorylation enrichment is 4.12.

Q: Which phosphorylation enrichment does the source give for SDGGCYEQLFV [MC4R_Y41] here?
A: The phosphorylation enrichment was 0.871.

Q: With DLTQDYEEWKR [ORC6_Y232] as the sequence, how does the phosphorylation enrichment read?
A: Its phosphorylation enrichment is 0.84.

Q: TEAEPYYRSLR [NPHS1_Y1138] was tested. Which phosphorylation enrichment did it give?
A: Its phosphorylation enrichment is 0.722.

Q: How did the phosphorylation enrichment turn out when DNEFAYLKAII [HNF4A_Y288_YF] was run?
A: The phosphorylation enrichment was 0.689.

Q: Which phosphorylation enrichment does the source give for WYQTKYEELQV [KRT6B_Y360_I365V] here?
A: Its phosphorylation enrichment is 0.741.

Q: For AKKKMYSRKTK [AGXT_Y231], which phosphorylation enrichment is on record?
A: The phosphorylation enrichment was 0.478.
